Consider three sequences from the supplement of paper PMC6379048.

Test in all cases: EC50 of free RNA motif oligo competing protein binding to immobilised probe
The target of one data set is AGO1 (UniProt Q9UL18). The essentials:
(§1)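 HEK293-FT lysate (2.5 mg protein/well) was treated with free RNA oligos (0 nM to 30 μM) for 1 h at 4°C, then with the same oligos on NHS-Sepharose beads for 30 min at 4°C. Bound proteins were quantified by label-free LC-MS/MS relative to the control. EC50 came from a four-parameter log-logistic fit, and Kd is EC50 times a protein-dependent depletion factor.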

In the next data set the target is SRSF10 (UniProt O75494). The essentials:
as §1

The target of the next data set is MRPL38 (UniProt Q96DV4). The essentials:
as §1

The next data set deals with RPS12 (UniProt P25398). The essentials:
as §1

In the next data set the target is T1, ERAL1 (UniProt O75616).
T1 sequence: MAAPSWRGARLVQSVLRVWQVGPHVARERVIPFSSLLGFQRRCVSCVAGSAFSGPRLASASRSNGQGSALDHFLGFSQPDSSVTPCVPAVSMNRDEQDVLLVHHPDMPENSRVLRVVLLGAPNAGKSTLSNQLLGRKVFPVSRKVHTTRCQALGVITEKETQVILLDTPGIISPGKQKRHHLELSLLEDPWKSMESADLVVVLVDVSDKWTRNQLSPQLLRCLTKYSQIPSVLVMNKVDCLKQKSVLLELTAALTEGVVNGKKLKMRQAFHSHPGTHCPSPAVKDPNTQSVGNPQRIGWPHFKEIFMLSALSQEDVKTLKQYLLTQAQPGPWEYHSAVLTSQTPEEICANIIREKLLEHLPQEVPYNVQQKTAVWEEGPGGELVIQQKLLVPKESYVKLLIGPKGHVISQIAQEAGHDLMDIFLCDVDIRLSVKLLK
The essentials: as §1

Another data set addresses MRPS9 (UniProt P82933). The method in brief: as §1
In the next data set the target is T2, MYEF2 (UniProt Q9P2K5).
T2 sequence: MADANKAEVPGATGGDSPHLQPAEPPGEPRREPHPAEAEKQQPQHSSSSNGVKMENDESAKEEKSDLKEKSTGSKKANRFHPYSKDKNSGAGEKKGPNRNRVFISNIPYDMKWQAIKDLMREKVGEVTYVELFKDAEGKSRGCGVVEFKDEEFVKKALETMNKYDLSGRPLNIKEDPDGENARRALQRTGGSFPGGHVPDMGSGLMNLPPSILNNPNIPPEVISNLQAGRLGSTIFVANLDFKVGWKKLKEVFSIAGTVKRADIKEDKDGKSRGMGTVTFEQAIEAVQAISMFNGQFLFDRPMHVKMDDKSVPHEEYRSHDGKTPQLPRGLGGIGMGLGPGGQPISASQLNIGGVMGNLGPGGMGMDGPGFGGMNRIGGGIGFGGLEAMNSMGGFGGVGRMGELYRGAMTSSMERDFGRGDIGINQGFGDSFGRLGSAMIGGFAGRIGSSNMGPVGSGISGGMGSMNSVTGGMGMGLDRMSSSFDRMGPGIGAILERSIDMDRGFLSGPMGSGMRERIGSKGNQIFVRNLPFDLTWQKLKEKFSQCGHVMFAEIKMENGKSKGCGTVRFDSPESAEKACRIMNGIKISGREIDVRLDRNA
The method in brief: as §1

The target in a further data set is T3, PLOD1 (UniProt Q02809).
T3 sequence: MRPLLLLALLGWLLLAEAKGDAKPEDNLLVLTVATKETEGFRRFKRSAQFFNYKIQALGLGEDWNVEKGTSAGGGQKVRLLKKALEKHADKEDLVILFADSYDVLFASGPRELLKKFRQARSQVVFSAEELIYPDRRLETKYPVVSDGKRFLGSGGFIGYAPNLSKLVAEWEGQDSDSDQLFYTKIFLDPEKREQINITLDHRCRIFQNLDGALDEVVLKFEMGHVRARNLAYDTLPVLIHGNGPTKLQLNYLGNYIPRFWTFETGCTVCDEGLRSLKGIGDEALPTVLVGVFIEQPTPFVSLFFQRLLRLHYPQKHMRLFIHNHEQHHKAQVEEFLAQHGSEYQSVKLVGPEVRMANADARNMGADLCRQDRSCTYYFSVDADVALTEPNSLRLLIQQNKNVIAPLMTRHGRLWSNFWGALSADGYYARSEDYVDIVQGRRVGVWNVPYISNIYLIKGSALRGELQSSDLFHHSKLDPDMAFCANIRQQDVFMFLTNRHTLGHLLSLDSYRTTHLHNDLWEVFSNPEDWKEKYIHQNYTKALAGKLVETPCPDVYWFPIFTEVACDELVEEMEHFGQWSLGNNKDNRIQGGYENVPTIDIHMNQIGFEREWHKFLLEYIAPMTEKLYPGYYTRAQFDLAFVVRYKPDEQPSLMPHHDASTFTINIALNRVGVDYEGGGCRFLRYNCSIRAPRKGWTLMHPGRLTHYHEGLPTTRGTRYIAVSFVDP
The method in brief:
as §1

In the next data set the target is PTCD3 (UniProt Q96EY7). The method in brief: as §1

Usually EC50 stands for the concentration that produces a half-maximal response.

Chain of SRSF10 (O75494 whole entry): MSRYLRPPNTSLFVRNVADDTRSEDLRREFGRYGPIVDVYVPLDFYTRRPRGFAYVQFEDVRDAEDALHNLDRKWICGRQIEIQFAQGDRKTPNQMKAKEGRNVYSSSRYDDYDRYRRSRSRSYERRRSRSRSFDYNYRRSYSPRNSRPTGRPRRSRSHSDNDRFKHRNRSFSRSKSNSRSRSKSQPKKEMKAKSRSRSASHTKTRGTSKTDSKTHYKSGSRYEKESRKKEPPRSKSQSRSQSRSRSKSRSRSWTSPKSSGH

In the case of AAUAAA, the EC50 in the data set with AGO1 stood at 0.379 µM; with SRSF10, 1.15 µM.
Consider CUGUCCU, for which the EC50 is 0.119 µM with MRPL38 and 0.392 µM with RPS12.
Turning to UAUUUAU, the EC50 in the data set with ERAL1 amounted to 0.0278 µM; with MRPS9, 0.0294 µM; in the data set with MYEF2 it was 3.8 µM; with PLOD1, 6.72 µM; with PTCD3, 0.05 µM.
